Changes are numbered by the printed parent chain.
T1: human α-CGRP 1-37 (WT) (human, C-terminal amide; N-terminal biotin when captured on the SA chip; 125I-labelled in the radioligand assay)
T1 construct: also called α-human
T1 peptide: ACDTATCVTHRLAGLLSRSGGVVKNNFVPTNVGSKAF

T2: rat α-CGRP (1-37) (rat, C-terminal amide; N-terminal biotin when captured on the SA chip)
T2 construct: also called rat α (1-37); α-rat
T2 peptide: T1 peptide with A1S, D3N, N25D, K35E

B1: G1 variant M6 Fab (Fab, V domains shown)
VH: EVQLVESGGGLVQPGGSLRLSCAASGFTFSNYWISWVRQAPGKGLEWVAEIRSESDASATHYAEAVKGRFTISRDNAKNSLYLQMNSLRAEDTAVYYCNAYFDYGLAIQNYWGQGTLVTVSS
VL: EIVLTQSPATLSLSPGERATLSCKASKRVTTYVSWYQQKPGQAPRLLIYGASNRYLGIPARFSGSGSGTDFTLTISSLEPEDFAVYYCSQSYNYPYTFGQGTKLEIK
notes: Fab; constant domains as m1
B2: G1 variant M7 Fab (Fab, V domains shown)
VH: B1 VH with A100C
VL: B1 VL
notes: Fab; constant domains as m1
B3: G1 variant M8 Fab (Fab, V domains shown)
VH: B1 VH with A100G
VL: B1 VL
notes: Fab; constant domains as m1
B4: G1 variant M10 Fab (Fab, V domains shown)
VH: B1 VH with N99S, A100S
VL: B1 VL
notes: Fab; constant domains as m1
B5: G1 variant M11 Fab (Fab, V domains shown)
VH: B1 VH with N99S, A100T
VL: B1 VL
notes: Fab; constant domains as m1
B6: G1 variant M12 Fab (Fab, V domains shown)
VH: B1 VH with N99S, A100V
VL: B1 VL
notes: Fab; constant domains as m1
B7: G1 variant M13 Fab (Fab, V domains shown)
VH: B1 VH with N99T, A100G
VL: B1 VL
notes: Fab; constant domains as m1
B8: G1 variant M15 Fab (Fab, V domains shown)
VH: B1 VH with N99T, A100P
VL: B1 VL
notes: Fab; constant domains as m1
B9: G1 variant M16 Fab (Fab, V domains shown)
VH: B1 VH with N99T, A100S
VL: B1 VL
notes: Fab; constant domains as m1
B10: G1 variant M17 Fab (Fab, V domains shown)
VH: B1 VH with N99T, A100V
VL: B1 VL
notes: Fab; constant domains as m1
B11: G1 variant M18 Fab (Fab, V domains shown)
VH: B1 VH with N99V, A100G
VL: B1 VL
notes: Fab; constant domains as m1
B12: G1 variant M20 Fab (Fab, V domains shown)
VH: B1 VH with N99R, A100L
VL: B1 VL with R28W
notes: Fab; constant domains as m1
B13: G1 variant M21 Fab (Fab, V domains shown)
VH: B1 VH with N99S
VL: B1 VL with R28W
notes: Fab; constant domains as m1
B14: G1 variant M22 Fab (Fab, V domains shown)
VH: B1 VH with N99T
VL: B1 VL with R28W
notes: Fab; constant domains as m1
B15: G1 variant M23 Fab (Fab, V domains shown)
VH: B1 VH with N99T, A100V
VL: B1 VL with R28G
notes: Fab; constant domains as m1
B16: G1 variant M24 Fab (Fab, V domains shown)
VH: B1 VH with N99T, A100V
VL: B1 VL with R28L
notes: Fab; constant domains as m1
B17: G1 variant M25 Fab (Fab, V domains shown)
VH: B1 VH with N99T, A100V
VL: B1 VL with R28N
notes: Fab; constant domains as m1
B18: G1 variant M26 Fab (Fab, V domains shown)
VH: B1 VH with A57G, N99T, A100V
VL: B1 VL with R28N
notes: Fab; constant domains as m1
B19: G1 variant M27 Fab (Fab, V domains shown)
VH: B1 VH with N99T, A100V
VL: B1 VL with R28N, T30A
notes: Fab; constant domains as m1
B20: G1 variant M28 Fab (Fab, V domains shown)
VH: B1 VH with E54R, A57N, N99T, A100V
VL: B1 VL with R28N, T30D
notes: Fab; constant domains as m1
B21: G1 variant M29 Fab (Fab, V domains shown)
VH: B1 VH with N99T, A100V
VL: B1 VL with R28N, T30G
notes: Fab; constant domains as m1
B22: G1 variant M30 Fab (Fab, V domains shown)
VH: B1 VH with E54K, A57E, N99T, A100V
VL: B1 VL with R28N, T30G
notes: Fab; constant domains as m1
B23: G1 variant M31 Fab (Fab, V domains shown)
VH: B1 VH with E54K, A57G, N99T, A100V
VL: B1 VL with R28N, T30G
notes: Fab; constant domains as m1
B24: G1 variant M32 Fab (Fab, V domains shown)
VH: B1 VH with E54K, A57H, N99T, A100V
VL: B1 VL with R28N, T30G
notes: Fab; constant domains as m1
B25: G1 variant M33 Fab (Fab, V domains shown)
VH: B1 VH with E54K, A57N, S58G, N99T, A100V
VL: B1 VL with R28N, T30G
notes: Fab; constant domains as m1
B26: G1 variant M34 Fab (Fab, V domains shown)
VH: B1 VH with E54K, A57N, S58T, N99T, A100V
VL: B1 VL with R28N, T30G
notes: Fab; constant domains as m1
B27: G1 variant M35 Fab (Fab, V domains shown)
VH: B1 VH with E54K, A57S, N99T, A100V
VL: B1 VL with R28N, T30G
notes: Fab; constant domains as m1
B28: G1 variant M36 Fab (Fab, V domains shown)
VH: B1 VH with N99T, A100V
VL: B1 VL with R28N, T30R
notes: Fab; constant domains as m1
B29: G1 variant M37 Fab (Fab, V domains shown)
VH: B1 VH with A57G, N99T, A100V
VL: B1 VL with R28N, T30S
notes: Fab; constant domains as m1
B30: G1 variant M38 Fab (Fab, V domains shown)
VH: B1 VH with N99T, A100V
VL: B1 VL with R28N, T30W
notes: Fab; constant domains as m1
B31: G1 variant M39 Fab (Fab, V domains shown)
VH: B1 VH with A57N, S58Y, N99T, A100V
VL: B1 VL with R28N, G50A, L56T
notes: Fab; constant domains as m1
B32: G1 variant M40 Fab (Fab, V domains shown)
VH: B1 VH with E54K, A57L, N99T, A100V
VL: B1 VL with R28N, G50A, L56T
notes: Fab; constant domains as m1

Biological target: T1, human α-CGRP 1-37 (WT)
Test: Biacore, 37°C, Fab over CGRP on SA chip
Description: (§1) Biacore assay for affinity determination. […] All Biacore assays were conducted in HBS-EP running buffer (10 mM HEPES pH 7.4, 150 mM NaCl, 3 mM EDTA, 0.005% v/v polysorbate P20). CGRP surfaces were prepared by diluting the N-biotinylated CGRP to a concentration of less than 0.001 mg/mL into HBS-EP buffer and injecting it across the SA sensor chip using variable contact times. […] Samples were typically injected for 1 minute at 100 μL/min and dissociation times of at least 10 minutes were allowed. […] An entire titration series (typically generated in duplicate) was fit globally to a 1:1 Langmuir binding model using the BIAevaluation program. This returned a unique pair of association and dissociation kinetic rate constants (respectively, kₒₙ and koff) for each binding interaction, whose ratio gave the equilibrium dissociation constant (KD=koff/kₒₙ). […]

Row | Binder | Kd | koff
1 | B1 | 0.83 nM | 0.000133 s⁻¹
2 | B2 | 1.52 nM | 0.000243 s⁻¹
3 | B3 | 0.58 nM | 9.2e-05 s⁻¹
4 | B4 | 1.08 nM | 0.000173 s⁻¹
5 | B5 | 1.77 nM | 0.000283 s⁻¹
6 | B6 | 0.63 nM | 0.000101 s⁻¹
7 | B7 | 1.16 nM | 0.000186 s⁻¹
8 | B8 | 0.1 nM | 1.58e-05 s⁻¹
9 | B9 | 1.03 nM | 0.000165 s⁻¹
10 | B10 | 1.16 nM | 0.000185 s⁻¹
11 | B11 | 0.44 nM | 7.03e-05 s⁻¹
12 | B12 | 0.85 nM | 0.000136 s⁻¹
13 | B13 | 1.23 nM | 0.000142 s⁻¹
14 | B14 | 0.73 nM | 0.000116 s⁻¹
15 | B15 | 0.81 nM | 0.00013 s⁻¹
16 | B16 | 0.93 nM | 0.000148 s⁻¹

Row | Binder | Kd | koff
17 | B17 | 1.3 nM | 0.00014 s⁻¹
18 | B18 | 0.93 nM | 0.000148 s⁻¹
19 | B19 | 2.23 nM | 0.000357 s⁻¹
20 | B20 | 0.62 nM | 9.96e-05 s⁻¹
21 | B21 | 2.38 nM | 0.00038 s⁻¹
22 | B22 | 3.69 nM | 0.00059 s⁻¹
23 | B23 | 2.17 nM | 0.000347 s⁻¹
24 | B24 | 1.69 nM | 0.000271 s⁻¹
25 | B25 | 4.69 nM | 0.00075 s⁻¹
26 | B26 | 4.04 nM | 0.000646 s⁻¹
27 | B27 | 2.12 nM | 0.000339 s⁻¹
28 | B28 | 1.49 nM | 0.000239 s⁻¹
29 | B29 | 1.41 nM | 0.000226 s⁻¹
30 | B30 | 1.36 nM | 0.000218 s⁻¹
31 | B31 | 2.66 nM | 0.000425 s⁻¹
32 | B32 | 8 nM | 0.00128 s⁻¹

Biological target: T2, rat α-CGRP (1-37)
Test: Biacore, 37°C, Fab over CGRP on SA chip
Description: as §1

Row | Binder | Kd | koff
33 | B1 | 43.6 nM | 0.000784 s⁻¹
34 | B2 | 51 nM | 0.000918 s⁻¹
35 | B3 | 41.4 nM | 0.000745 s⁻¹
36 | B4 | 83.9 nM | 0.00151 s⁻¹
37 | B5 | 268 nM | 0.00483 s⁻¹
38 | B6 | 108 nM | 0.00194 s⁻¹
39 | B7 | 102 nM | 0.00184 s⁻¹
40 | B8 | 63.9 nM | 0.00115 s⁻¹
41 | B9 | 55.3 nM | 0.000996 s⁻¹
42 | B10 | 114 nM | 0.00206 s⁻¹
43 | B11 | 67.8 nM | 0.00122 s⁻¹
44 | B12 | 80 nM | 0.00144 s⁻¹
45 | B13 | 15.2 nM | 0.000695 s⁻¹
46 | B14 | 61.1 nM | 0.0011 s⁻¹
47 | B15 | 44.4 nM | 0.000799 s⁻¹
48 | B16 | 57.8 nM | 0.00104 s⁻¹

Row | Binder | Kd | koff
49 | B17 | 76 nM | 0.0014 s⁻¹
50 | B18 | 51.3 nM | 0.000924 s⁻¹
51 | B19 | 189 nM | 0.00341 s⁻¹
52 | B20 | 69.4 nM | 0.00125 s⁻¹
53 | B21 | 199 nM | 0.00359 s⁻¹
54 | B22 | 354 nM | 0.00638 s⁻¹
55 | B23 | 201 nM | 0.00361 s⁻¹
56 | B24 | 164 nM | 0.00296 s⁻¹
57 | B25 | 512 nM | 0.00922 s⁻¹
58 | B26 | 121 nM | 0.00217 s⁻¹
59 | B27 | 222 nM | 0.00399 s⁻¹
60 | B28 | 266 nM | 0.00479 s⁻¹
61 | B29 | 80.6 nM | 0.00145 s⁻¹
62 | B30 | 284 nM | 0.00511 s⁻¹
63 | B31 | 553 nM | 0.00995 s⁻¹
64 | B32 | 20000 nM | 0.36 s⁻¹

— US20190071490A1 (BETH ISRAEL DEACONESS MEDICAL CENTER, published 2019)
